These results are taken from US20250376536A1 (Bristol-Myers Squibb, published 2025).

For assay [1], the target named is T1, human CD40 protein (human, UniProt P25942 21-193).
T1 construct: Protein used in SPR
The assay is described as follows: SPR. On the procedure: (§1) CD40.9H3×FAP.LP62 and an analog of RO7300490 (see SEQ ID NOs: 39-42) binding to human and cynomolgus (cyno) CD40 and FAP was evaluated by surface plasmon resonance (SPR) using human and cyno CD40 and FAP proteins. […] The rates of association and dissociation of CD40.9H3×FAP.LP62 and the analog of RO7300490 to human CD40 and FAP are summarized in Table 2.
(In general: Surface plasmon resonance follows binding to a sensor surface in real time, without labels.)

Assay [2] deals with T2, human FAP protein (human, UniProt Q12884 26-760).
T2 sequence: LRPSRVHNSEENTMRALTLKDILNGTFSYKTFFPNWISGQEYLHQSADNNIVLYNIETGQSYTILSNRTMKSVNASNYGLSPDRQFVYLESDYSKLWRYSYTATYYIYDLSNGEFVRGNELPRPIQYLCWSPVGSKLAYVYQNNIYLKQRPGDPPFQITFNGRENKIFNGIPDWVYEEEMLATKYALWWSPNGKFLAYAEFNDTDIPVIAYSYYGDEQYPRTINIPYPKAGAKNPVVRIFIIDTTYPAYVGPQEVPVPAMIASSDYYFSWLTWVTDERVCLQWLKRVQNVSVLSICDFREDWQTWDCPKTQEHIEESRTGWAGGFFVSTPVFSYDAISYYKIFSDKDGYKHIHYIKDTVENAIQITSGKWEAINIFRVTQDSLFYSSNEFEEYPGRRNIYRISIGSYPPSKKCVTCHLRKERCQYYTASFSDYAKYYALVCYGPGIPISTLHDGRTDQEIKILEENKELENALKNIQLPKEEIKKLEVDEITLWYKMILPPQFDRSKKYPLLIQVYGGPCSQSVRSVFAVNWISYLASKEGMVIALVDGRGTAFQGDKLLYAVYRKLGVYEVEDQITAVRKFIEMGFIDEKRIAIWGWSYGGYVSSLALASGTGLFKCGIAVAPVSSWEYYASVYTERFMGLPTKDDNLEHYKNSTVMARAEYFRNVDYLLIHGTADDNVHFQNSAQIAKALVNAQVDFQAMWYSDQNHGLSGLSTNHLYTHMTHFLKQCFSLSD
Briefly: SPR. On the procedure: as §1

The target of assay [3] is T3, soluble FAP (human, UniProt Q12884 26-760, limits assumed).
T3 sequence: T2 sequence
The assay is described as follows: cell-based or functional assay.

Assay [4] has as its target T3, soluble FAP. The assay is described as follows: cell-based or functional assay. This is another data set of the same source.
For assay [5], the target named is T4, human FAP on cells (human, UniProt Q12884 1-760).
T4 sequence: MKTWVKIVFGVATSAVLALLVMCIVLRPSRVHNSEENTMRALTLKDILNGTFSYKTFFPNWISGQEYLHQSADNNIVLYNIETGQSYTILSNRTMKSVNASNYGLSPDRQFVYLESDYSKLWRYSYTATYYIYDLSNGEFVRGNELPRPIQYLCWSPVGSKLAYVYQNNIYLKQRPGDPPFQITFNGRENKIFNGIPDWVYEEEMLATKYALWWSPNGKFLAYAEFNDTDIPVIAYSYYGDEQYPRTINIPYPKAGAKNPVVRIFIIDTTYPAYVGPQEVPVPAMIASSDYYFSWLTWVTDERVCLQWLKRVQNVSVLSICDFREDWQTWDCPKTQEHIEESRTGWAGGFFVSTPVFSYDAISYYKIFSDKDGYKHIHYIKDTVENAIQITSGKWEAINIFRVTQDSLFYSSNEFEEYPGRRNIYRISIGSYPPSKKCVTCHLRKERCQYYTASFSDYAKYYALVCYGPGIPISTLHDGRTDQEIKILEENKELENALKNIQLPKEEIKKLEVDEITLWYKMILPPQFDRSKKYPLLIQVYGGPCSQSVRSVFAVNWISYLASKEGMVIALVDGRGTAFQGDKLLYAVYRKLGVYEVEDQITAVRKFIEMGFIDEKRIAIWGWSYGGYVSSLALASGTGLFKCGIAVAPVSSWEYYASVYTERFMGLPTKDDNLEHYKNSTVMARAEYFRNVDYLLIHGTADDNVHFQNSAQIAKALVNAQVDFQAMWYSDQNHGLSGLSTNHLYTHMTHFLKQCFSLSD
The assay is described as follows: cell-based or functional assay.

Assay [6] concerns the target T5, FcγRI (CD64) (UniProt P12314 16-288, limits assumed).
T5 construct: also called FcγR1 (CD64); FcγR1
The assay is described as follows: SPR, Biacore S200, antibody captured on Protein A chip, FcγR as analyte. On the procedure: Binding of CD40.9H3×FAP.LP62 and the analog of RO7300490 to various Fc gamma receptors (FcγR1 (CD64), FcγRIIIA (CD16a), FcγRIIIB (CD16b), FcγRIIA (CD32a), FcγRIIB (CD32b)) was determined in an analyte/capture assay in vitro. Briefly, an SPR assay was performed using a Biacore S200 with a Biacore Series S Protein A chip (Cytiva). All antibodies were prepared at 4.0 μg/ml in 1×HBS-EP+ running buffer (Cytiva) and captured onto flow cells 2, 3, and 4 through a 60 second contact time at 10 μl/min. An analyte series of the FcγRs (BMS In-House Produced) were prepared at 10,000 nM in 1×HBS-EP+ with eight, three-fold dilutions. Kinetic measurements were conducted with a 120 second association followed by a 120 second dissociation at 30 μl/min. Surface regeneration was preformed by 60 second contact time of 50 mM Glycine pH 1.5 solution (Cytiva) at 30 μl/min. Data was processed in Biacore Insight Evaluation Version 5 (Cytiva). Sensorgrams were double referenced and globally fit to a 1:1 Langmuir model were applicable. Where 1:1 model was not sufficient to describe the interaction (fast-on and fast-off rates), steady state equilibrium fitting was used to determine the equilibrium constant.

T1 sequence (P25942 21-193 limits assumed): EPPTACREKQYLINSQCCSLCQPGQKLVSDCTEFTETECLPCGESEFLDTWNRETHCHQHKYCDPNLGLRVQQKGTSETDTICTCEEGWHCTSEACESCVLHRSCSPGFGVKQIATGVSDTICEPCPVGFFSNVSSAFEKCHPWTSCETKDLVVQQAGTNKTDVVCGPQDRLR
T5 sequence (P12314 16-288 limits assumed): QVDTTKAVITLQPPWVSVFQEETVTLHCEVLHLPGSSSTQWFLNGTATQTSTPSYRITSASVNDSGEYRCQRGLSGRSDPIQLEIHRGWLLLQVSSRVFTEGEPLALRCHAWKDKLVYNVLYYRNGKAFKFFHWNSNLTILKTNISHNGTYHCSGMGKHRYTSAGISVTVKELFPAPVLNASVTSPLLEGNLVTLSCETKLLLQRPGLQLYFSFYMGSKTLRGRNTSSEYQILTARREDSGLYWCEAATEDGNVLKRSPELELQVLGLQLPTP

B1: analog of RO7300490 (bispecific antibody, human IgG1, kappa, L234A L235A)
heavy 1: not shown
heavy 2: QVQLVQSGAEVKKPGASVKVSCKASGYSFTGYYIHWVRQAPGQSLEWMGRVIPNAGGTSYNQKFKGRVTLTVDKSISTAYMELSRLRSDDTAVYYCAREGIYWWGQGTTVTVSSASTKGPSVFPLAPSSKSTSGGTAALGCLVEDYFPEPVTVSWNSGALTSGVHTFPAVLQSSGLYSLSSVVTVPSSSLGTQTYICNVNHKPSNTKVDEKVEPKSCDKTHTCPPCPAPEAAGGPSVFLFPPKPKDTLMISRTPEVTCVVVDVSHEDPEVKFNWYVDGVEVHNAKTKPREEQYNSTYRVVSVLTVLHQDWLNGKEYKCKVSNKALGAPIEKTISKAKGQPREPQVCTLPPSRDELTKNQVSLSCAVKGFYPSDIAVEWESNGQPENNYKTTPPVLDSDGSFFLVSKLTVDKSRWQQGNVFSCSVMHEALHNHYTQKSLSLSPG
light 1: DIVMTQTPLSLSVTPGQPASISCRSSQSLVHSNGNTFLHWYLQKPGQSPQLLIYTVSNRFSGVPDRFSGSGSGTDFTLKISRVEAEDVGVYFCSQTTHVPWTFGGGTKVEIKRTVAAPSVFIFPPSDRKLKSGTASVVCLLNNFYPREAKVQWKVDNALQSGNSQESVTEQDSKDSTYSLSSTLTLSKADYEKHKVYACEVTHQGLSSPVTKSFNRGEC
light 2: QVQLVQSGAEVKKPGASVKVSCKASGYTLTDYNMDWVRQAPGQGLEWIGDIYPNTGGTIYNQKFKGRVTMTIDTSTSTVYMELSSLRSEDTAVYYCTRFRGIHYAMDYWGQGTTVTVSSASVAAPSVFIFPPSDEQLKSGTASVVCLLNNFYPREAKVQWKVDNALQSGNSQESVTEQDSKDSTYSLSSTLTLSKADYEKHKVYACEVTHQGLSSPVTKSFNRGEC
notes: Human IgG1 Fc with L234A, L235A, P329G; also called RO7300490 analog
As for B1, in assay [1], binding was put at a Kd of 4.9 nM, the koff (commonly the rate constant with which the complex falls apart) is 0.00555 s⁻¹ and the kon (usually the rate constant with which the complex forms) stood at 1.13e+06 M⁻¹ s⁻¹. Moreover, in assay [2], the dissociation constant Kd – broadly, the constant that tells how readily two partners part at equilibrium – was found to be 0.265 nM; the koff is 4.83e-05 s⁻¹; the kon was found to be 182000 M⁻¹ s⁻¹. For the same molecule, in assay [3], the “fold reduction in potency of IL12p40 secretion with 120 ng/mL soluble FAP” value was 14.2 fold and the “fold reduction in potency of IL12p40 secretion with 480 ng/mL soluble FAP” value was 70.9 fold. Further, in assay [4], the “IL12p40 release, human DC + HFF1 co-culture, EC50, soluble FAP 120 ng/mL” value was determined as 1.14 nM and the “IL12p40 release, human DC + HFF1 co-culture, EC50, soluble FAP 480 ng/mL” value amounted to 516 nM. Further, in assay [5], the “IL12p40 release, human DC + HFF1 co-culture, EC50, soluble FAP 0 ng/mL” value turned out to be 0.09 nM. In addition, binding in assay [6] was characterised by a dissociation constant (Kd) of 2550 nM.
